Assay results from PMC10703879.

How the values were obtained:
[1] = target: BCMAECD (synthesized extracellular domain of human B-cell maturation antigen, residues 1-54) (human) (UniProt Q02223); assay: AUC; sedimentation velocity; complexes formed by mixing nanobody with excess BCMAECD (molar ratio 1:4, overnight at 4 °C); 1 mg/ml, 45,000 rpm, 20 mM Tris pH 8.0, 100 mM NaCl, 4 °C
[2] = target: BCMAECD-Fc (dimerized, Fc-tagged human BCMA extracellular domain) (human) (UniProt Q02223); assay: SPR; Biacore 8K, 25 °C, 10 mM HEPES pH 7.4, 150 mM NaCl, 0.05% Tween 20; BCMAECD-Fc immobilised by amine coupling on CM5; nanobodies as analytes (five two-fold dilutions); Langmuir model for Nb1 and Nb2, heterogeneous ligand model for NbT
Sequence of BCMAECD-Fc (dimerized, Fc-tagged human BCMA extracellular domain) (human) (Q02223 1-54): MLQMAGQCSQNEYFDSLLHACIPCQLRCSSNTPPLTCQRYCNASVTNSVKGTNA

[3] = target: BCMAECD-His (monomeric, His-tagged human BCMA extracellular domain) (human) (UniProt Q02223); assay: SPR; Biacore 8K, 25 °C, 10 mM HEPES pH 7.4, 150 mM NaCl, 0.05% Tween 20; BCMAECD-His immobilised by amine coupling on CM5; nanobodies as analytes (five two-fold dilutions); Langmuir model for Nb1 and Nb2, heterogeneous ligand model for NbT
Sequence of BCMAECD-His (monomeric, His-tagged human BCMA extracellular domain) (human) (Q02223 1-54): as above

[4] = target: BCMAECD-Fc (dimerized, Fc-tagged human BCMA extracellular domain) (human) (UniProt Q02223); assay: SPR; heterogeneous ligand, first site (KD1); details: VHH
[5] = target: BCMAECD-Fc (dimerized, Fc-tagged human BCMA extracellular domain) (human) (UniProt Q02223); assay: SPR; heterogeneous ligand, first site (kd1); details: VHH
[6] = target: BCMAECD-His (monomeric, His-tagged human BCMA extracellular domain) (human) (UniProt Q02223); assay: SPR; heterogeneous ligand, first site (kd1); details: VHH
[7] = target: BCMAECD-Fc (dimerized, Fc-tagged human BCMA extracellular domain) (human) (UniProt Q02223); assay: SPR; heterogeneous ligand, second site (KD2); details: VHH
[8] = target: BCMAECD-His (monomeric, His-tagged human BCMA extracellular domain) (human) (UniProt Q02223); assay: SPR; heterogeneous ligand, second site (KD2); details: VHH
[9] = target: BCMAECD-Fc (dimerized, Fc-tagged human BCMA extracellular domain) (human) (UniProt Q02223); assay: SPR; heterogeneous ligand, second site (kd2); details: VHH
[10] = target: BCMAECD-His (monomeric, His-tagged human BCMA extracellular domain) (human) (UniProt Q02223); assay: SPR; heterogeneous ligand, second site (kd2); details: VHH

Sequence of BCMAECD (synthesized extracellular domain of human B-cell maturation antigen, residues 1-54) (human) (Q02223 1-54): as above

## NbT (cilta-cel nanobody tandem, Nb1 and Nb2 in tandem) (VHH)
[1]
  stoichiometry N (NbT per BCMAECD (printed 2 to 4)): 0.5
[2]
  KD of the higher-affinity site (heterogeneous ligand model): 3.6 pM
[3]
  KD of the stronger site (heterogeneous ligand model): 11 pM

## NbT (cilta-cel nanobody tandem, Nb1 and Nb2 in tandem)
[4]
  Kd: 3.61 pM
[5]
  koff: 3.28e-05 s⁻¹
[6]
  koff: 0.000118 s⁻¹
[7]
  Kd: 3540 pM
[8]
  Kd: 4270 pM
[9]
  koff: 0.0133 s⁻¹
[10]
  koff: 0.0191 s⁻¹
